Reference: PMC2685004, “Recruitment of a SAP18-HDAC1 Complex into HIV-1 Virions and Its Requirement for Viral Replication” (PLoS Pathogens, 2009)

Key:
[1] = biological target: T1, 6H(hexa-histidine)-INI1/hSNF5 (human, UniProt Q12824 1-385); test: pull-down; glutathione sepharose beads with GST-SAP18 incubated with purified IN and INI1 together; Western blot; settings: both partners purified
T1 construct: also called His-INI1; source: Ni-NTA and hydroxylapatite purified

[2] = biological target: T1, 6H(hexa-histidine)-INI1/hSNF5; test: pull-down; glutathione sepharose 4B beads with 5 µg GST or GST-SAP18, incubated with 2 µg His-IN or His-INI1, one at a time; 20 mM HEPES-KOH pH 6.8, 200 mM NaCl, 0.1 mM EDTA, 2-5 mM DTT, 0.1% IGEPAL, 100 µg/ml ethidium bromide, 10 U DNaseI; Western blot; settings: both partners purified

T1 sequence (Q12824 whole entry): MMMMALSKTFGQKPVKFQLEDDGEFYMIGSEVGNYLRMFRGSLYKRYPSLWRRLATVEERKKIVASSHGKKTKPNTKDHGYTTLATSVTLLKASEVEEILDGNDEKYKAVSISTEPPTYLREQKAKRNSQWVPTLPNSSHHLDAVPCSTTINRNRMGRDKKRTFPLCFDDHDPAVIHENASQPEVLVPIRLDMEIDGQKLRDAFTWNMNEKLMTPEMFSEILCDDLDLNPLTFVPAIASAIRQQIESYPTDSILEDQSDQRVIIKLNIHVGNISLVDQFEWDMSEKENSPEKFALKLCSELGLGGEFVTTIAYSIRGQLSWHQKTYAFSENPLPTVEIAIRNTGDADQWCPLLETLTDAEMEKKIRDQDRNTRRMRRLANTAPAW

B1: GST-SAP18 (natural protein, UniProt O00422 1-153, looked up)
chain: MAVESRVTQEEIKKEPEKPIDREKTCPLLLRVFTTNNGRHHRMDEFSRGNVPSSELQIYTWMDATLKELTSLVKEVYPEARKKGTHFNFAIVFTDVKRPGYRVKEIGSTMSGRKGTDDSMTLQSQKFQIGDYLDIAITPPNRAPPPSGRMRPY
notes: also called GST (glutathione-S-transferase)-SAP18; pGEX-SAP18
- binding result [1]: binds
- binding result [2]: binds
